Biological target: αMβ2 expressed on K562 cells (human) (UniProt P11215)
Experiment: flow cytometry on cells; αMβ2/K562 cells, 45 min with 10 μg/ml Alexa Fluor 488-iC3b and 0, 1, 5 or 10 μg/ml hCD11bNb1; 1 mM Ca2+ and 1 mM Mg2+, with or without 1 mM Mn2+

fold increase of iC3b* binding in the presence of hCD11bNb1 against none: 2 fold
Substance: Alexa Fluor 488-conjugated iC3b (from UniProt P01024 23-667; P01024 1321-1663) (ligand)

From publication PMC9287160
